Reference: patent US20080090770A1, “Modulation of Muc1 Mediated Signal Transduction” (priority 2003, published 2008)
Values belong to the substance of their own block, whether it stands above or below them.

Legend:
[1] = biological target: T1, biotinylated TAT-MUC1 binding to RIM2 (Homo sapiens, UniProt Q9UQ26); assay: Modified ELISA: competition with binding of biotinylated TAT-MUC1 peptide (SEQ ID NO: 134) to PDZ domain; conditions: FIG. 10, among three peptides
T1 construct: RIM2, PDZ domain 1: GI#: 12734165; made in house; host or cells: E. coli
T1 sequence (Q9UQ26 668-754 limits assumed): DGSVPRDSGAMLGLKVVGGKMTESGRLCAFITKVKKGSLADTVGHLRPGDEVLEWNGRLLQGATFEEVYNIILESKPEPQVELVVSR

[2] = biological target: T2, biotinylated TAT-MUC1 binding to ZO1 d2 (Homo sapiens, UniProt Q07157); assay: as above
T2 construct: made in house; host or cells: E. coli
T2 sequence (Q07157 186-264 limits assumed): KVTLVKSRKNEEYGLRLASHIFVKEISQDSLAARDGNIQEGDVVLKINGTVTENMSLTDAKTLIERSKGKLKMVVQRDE

Mint-2 d1 = biological target: T3, Mint-2 d1 (Homo sapiens, UniProt Q99767); assay: TransSignal PDZ Domain Array: binding of His-tagged MUC1/CD to immobilized PDZ domain, without or with 7-mer peptide
T3 construct: Mint-2 d1(XIIL protein, PDZ domain #1); purchased Panomics Inc
T3 sequence (Q99767 568-654 limits assumed): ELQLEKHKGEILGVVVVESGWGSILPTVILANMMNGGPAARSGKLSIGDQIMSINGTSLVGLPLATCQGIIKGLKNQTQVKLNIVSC
Protocol: (§1) The ability of the MUC1 cytoplasmic domain (CD) to interact with a panel of 28 human PDZ domain proteins was screened. A His-tagged MUC1/CD was produced to affect the screening. The CD of MUC1 was amplified by RT-PCR from cDNA derived from human breast cancer MCF7 cells. The MUC1/CD gene was cloned into a bacterial vector pEXP (Panomics Inc.) to generate a His-tagged fusion protein (pEXP/MUC1/CD). DH5α E. Coli cells were transformed with pEXP/MUC1/CD and incubated overnight in 1 ml of LB medium containing 100 μg/ml ampicillin (LB/AMP). Eighty μl of the overnight culture was transferred to a tube of 4 ml of LB/AMP and allowed to grow until an OD600 of approximately 0.5-0.8 was evident. IPTG was added to the culture at a final concentration of 0.5 mM to induce expression of the His-tagged MUC1/CD protein. After 4 hours, cells were harvested in 1× resuspension buffer (Panomics Inc.) and lysed by sonication. The lysate was centrifuged at 14000 rpm for 5 minutes at 4° C. The resulting supernatant (bacterial extract) was collected and stored at −80° C. until use.
(§2) The TransSignal PDZ Domain Array kit (Panomics Inc.) was used comprising membranes on which the following 28 human PDZ proteins had been immobilized: MINT-2 d1, Mint-3 d1, Mint-3 d2, Mint-1 d1, Mint1 d2, CSKP, Dlg d1, Dlg1 d3, Dlg2 d2, Dlg4 d3, DVL1, DVL3, DVLL, GIPC, HtrA2, LIMK2, MPP2, NEB1, OMP25, hCLIM1, PTPH1, ZO-2 d1, hPTP1E d1, hPTP1E d5, RGS12, RIL, ZO-1 d3 and ZO-2 d3.
(§3) Membranes were submerged in a small tray with 20 ml of x1 blocking buffer (Panomics Inc.), and shaken at room temperature for 1 hour. The blocking buffer was removed and membranes rinsed twice with x1 Wash Buffer (Panomics inc.) at room temperature. The bacterial extract was diluted to a final concentration of 0.1 mg/ml in 20 ml Resuspension Buffer (Panomics Inc.). The membrane was incubated with the dilute bacterial extract overnight at 4° C. with gentle shaking. After incubation, the membrane was washed three times with 40 ml 1× Wash Buffer at room temperature for 10 minutes each wash. The membrane was then incubated with 20 ml diluted Anti-Histidine HRP Conjugate (Panomics inc., 1:3000 dilution in 1× Wash Buffer) at room temperature for 1 hour. The membrane was then washed with 40 ml 1× Wash Buffer at room temperature for 10 minutes each wash. The membrane was then visualized using […] ECL (Amersham Biosciences) utilizing the Detection Buffers as supplied by Panomics.
(§4) His-tagged MUC1/CD (bacterial extract) was incubated in the absence or presence of a 20-fold molar excess of the 7-mer peptide AAASANL (SEQ ID NO: 133) with the appropriate membrane-immobilized PDZ domain, as described above in Example 4.

RIL = biological target: T4, RIL (Homo sapiens, UniProt P50479); assay: as above
T4 construct: purchased Panomics Inc
T4 sequence (P50479 1-84 limits assumed): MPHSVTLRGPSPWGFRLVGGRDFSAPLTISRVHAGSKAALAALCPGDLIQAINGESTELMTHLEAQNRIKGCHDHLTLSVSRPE
Protocol: as §1, §2, §3, §4

HtrA2 = biological target: T5, HtrA2 (Homo sapiens, UniProt O43464); assay: as above
T5 construct: purchased Panomics Inc
T5 sequence (O43464 364-445 limits assumed): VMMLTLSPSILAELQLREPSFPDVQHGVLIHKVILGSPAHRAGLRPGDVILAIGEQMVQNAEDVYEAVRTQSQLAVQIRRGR
Protocol: as §1, §2, §3, §4

Mint-1 d2 = biological target: T6, Mint-1 d2 (Homo sapiens, UniProt Q02410); assay: as above
T6 construct: Mint-1 d2 (XII protein, PDZ domain #2); purchased Panomics Inc
T6 sequence (Q02410 747-822 limits assumed): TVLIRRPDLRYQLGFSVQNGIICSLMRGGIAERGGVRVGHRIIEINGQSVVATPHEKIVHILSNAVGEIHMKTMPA
Protocol: as §1, §2, §3, §4

PTPH1 = biological target: T7, PTPH1 (Homo sapiens, UniProt P26045); assay: as above
T7 construct: purchased Panomics Inc
T7 sequence (P26045 510-582 limits assumed): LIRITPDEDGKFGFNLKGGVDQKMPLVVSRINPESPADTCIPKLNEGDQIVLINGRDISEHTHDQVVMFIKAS
Protocol: as §1, §2, §3, §4

OMP25 = biological target: T8, OMP25 (Homo sapiens, UniProt P57105); assay: TransSignal PDZ Domain Array: binding of His-tagged MUC1/CD to immobilized PDZ domain; conditions: bacterial extract 0.1 mg/ml, panel of 28 PDZ proteins
T8 construct: The TransSignal PDZ Domain Array kit (Panomics Inc.) was used; purchased Panomics Inc
T8 sequence (P57105 13-100 limits assumed): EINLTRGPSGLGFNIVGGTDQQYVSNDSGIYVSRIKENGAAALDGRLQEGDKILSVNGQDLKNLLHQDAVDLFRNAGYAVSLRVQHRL
Protocol: as §1, with “use. […]” for “use.”

[3] = bacterial extract 0.1 mg/ml, panel of 28 PDZ proteins

Substance: YGRKKRRQRRRARGDRKRIV [SEQ ID NO: 136]
Competitive inhibition of biotinylated SEQ ID NO: 134 (TAT-MUC1) binding [1]: best competitive inhibitor
Competition for binding of biotinylated SEQ ID NO: 134 (TAT-MUC1) [2]: can also compete for binding

Binding of his-tagged MUC1/CD to PDZ domain (Mint-2 d1; [3]): Binding was observed
Binding of his-tagged MUC1/CD to PDZ domain (RIL; [3]): Binding was observed
Binding of his-tagged MUC1/CD to PDZ domain (HtrA2; [3]): Binding was observed
Binding of his-tagged MUC1/CD to PDZ domain (Mint-1 d2; [3]): Binding was observed
Binding of his-tagged MUC1/CD to PDZ domain (PTPH1; [3]): Binding was observed
Binding of his-tagged MUC1/CD to PDZ domain (OMP25): Binding was observed
Substance: MUC1/CD: His-tagged fusion protein of the MUC1 cytoplasmic domain, used as bacterial extract

Inhibition of binding of his-tagged MUC1/CD to PDZ domain (Mint-2 d1; 20-fold molar excess of 7-mer): inhibited the binding
Inhibition of binding of his-tagged MUC1/CD to PDZ domain (RIL; 20-fold molar excess of 7-mer): inhibited the binding
Inhibition of binding of his-tagged MUC1/CD to PDZ domain (HtrA2; 20-fold molar excess of 7-mer): inhibited the binding
Inhibition of binding of his-tagged MUC1/CD to PDZ domain (Mint-1 d2; 20-fold molar excess of 7-mer): inhibited the binding
Inhibition of binding of his-tagged MUC1/CD to PDZ domain (PTPH1; 20-fold molar excess of 7-mer): inhibited the binding
Substance: AAASANL [7-mer peptide]
